Results from patent publication US20250243261A1 (CZ BIOHUB SF, published 2025).

Legend:
[1] = molecular target: SARS-CoV-2 Beta-variant Spike with two stabilizing proline substitutions (S-2P) (SARS-CoV-2 Beta variant); assay: BLI, IgG
[2] = molecular target: T1, SARS-CoV-2 Omicron-variant receptor binding domain (RBD) (SARS-CoV-2 Omicron variant); assay: BLI, IgG
T1 construct: domain: RBD

B1: C143 WT IgG (antibody, V domains shown)
VH: EVQLVESGGGLVQPGGSLRLSCAASGFSVSTKYMTWVRQAPGKGLEWVSVLYSGGSDYYADSVKGRFTISRDNSKNALYLQMNSLRVEDTGVYYCARDSSEVRDHPGHPGRSVGAFDIWGQGTMVTVSS
VL: QSALTQPASVSGSPGQSITISCTGTSNDVGSYTLVSWYQQYPGKAPKLLIFEGTKRSSGISNRFSGSKSGNTASLTISGLQGEDEADYYCCSYAGASTFVFGGGTKLTVL
Question: What does the source list for B1?
Answer: Kd [1]: 0.45 µM; Kd [2]: 600 µM
